The target of this assay is phosphoenolpyruvate carboxylase (Ppc; cce_3822) (Cyanothece ATCC 51142 (endogenous in the cells)). In words: SEC.

Substance “phosphoenolpyruvate carboxylase (Ppc; cce_3822) (enzyme)” yielded a Rapp (Mapp / Mmono) of 4.6.

The record behind these values is publication PMC6400067.
